How the values were obtained:
cMet-Fc fusion protein = cMet-Fc fusion protein (Homo sapiens, UniProt P08581); experiment: Protein phage ELISA: peptide-displaying phage binding to soluble cMet-Fc versus TRAIL-Fc; details: phage isolate; cMet-Fc vs. TRAIL-Fc
Procedure, shortened: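 Plates coated with 0.5 μg/mL cMet-Fc or, as background, TRAIL-Fc, then blocked with 3% BSA in PBST. Peptide-displaying phage bound 2 h at room temperature. Detection with HRP-anti-M13 antibody.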

[1] = target: T1, 3T3 cells that over-express human cMet (Homo sapiens, UniProt P08581); experiment: Whole cell ELISA of peptide-displaying phage; format: cell-based; details: phage isolate; 3T3 cells expressing human cMet vs. non-expressing 3T3 cells
T1 construct: expressed in transfected cells; host or cells: 3T3 cells
T1 sequence (P08581 25-1390): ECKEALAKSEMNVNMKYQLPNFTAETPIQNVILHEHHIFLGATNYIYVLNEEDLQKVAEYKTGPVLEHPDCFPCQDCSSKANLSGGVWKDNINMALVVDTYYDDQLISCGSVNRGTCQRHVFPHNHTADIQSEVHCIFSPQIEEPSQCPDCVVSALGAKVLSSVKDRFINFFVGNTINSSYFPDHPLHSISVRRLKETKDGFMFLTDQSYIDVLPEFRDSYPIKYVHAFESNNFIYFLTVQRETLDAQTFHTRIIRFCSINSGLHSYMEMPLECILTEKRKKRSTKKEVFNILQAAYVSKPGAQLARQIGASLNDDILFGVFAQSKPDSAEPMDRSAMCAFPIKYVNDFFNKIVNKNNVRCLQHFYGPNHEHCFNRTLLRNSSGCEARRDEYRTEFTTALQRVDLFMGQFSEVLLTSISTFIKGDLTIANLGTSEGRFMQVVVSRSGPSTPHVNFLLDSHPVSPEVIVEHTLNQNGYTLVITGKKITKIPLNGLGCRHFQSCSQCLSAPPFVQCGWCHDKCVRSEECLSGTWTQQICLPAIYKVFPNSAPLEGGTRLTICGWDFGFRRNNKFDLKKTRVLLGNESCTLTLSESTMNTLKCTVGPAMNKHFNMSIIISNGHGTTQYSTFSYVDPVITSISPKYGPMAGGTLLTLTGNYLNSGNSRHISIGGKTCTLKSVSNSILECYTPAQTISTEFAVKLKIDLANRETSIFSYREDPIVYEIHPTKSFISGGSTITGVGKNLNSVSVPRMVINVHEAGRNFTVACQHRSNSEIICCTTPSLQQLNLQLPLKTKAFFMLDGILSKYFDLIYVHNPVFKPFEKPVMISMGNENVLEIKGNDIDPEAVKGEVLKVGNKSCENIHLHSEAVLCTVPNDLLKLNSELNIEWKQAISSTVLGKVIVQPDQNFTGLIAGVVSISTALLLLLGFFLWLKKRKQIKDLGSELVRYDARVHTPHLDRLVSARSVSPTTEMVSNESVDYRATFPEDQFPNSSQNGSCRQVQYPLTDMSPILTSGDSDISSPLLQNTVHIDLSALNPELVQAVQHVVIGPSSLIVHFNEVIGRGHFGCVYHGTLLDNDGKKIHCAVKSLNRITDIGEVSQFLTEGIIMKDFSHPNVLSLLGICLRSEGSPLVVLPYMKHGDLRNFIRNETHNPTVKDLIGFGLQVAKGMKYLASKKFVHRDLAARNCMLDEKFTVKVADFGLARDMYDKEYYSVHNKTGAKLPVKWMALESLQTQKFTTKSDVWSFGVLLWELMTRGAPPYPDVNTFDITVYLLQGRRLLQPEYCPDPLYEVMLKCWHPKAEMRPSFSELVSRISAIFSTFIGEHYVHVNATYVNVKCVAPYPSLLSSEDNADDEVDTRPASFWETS
Procedure, shortened: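 3T3 cells over-expressing human cMet seeded 10^5/well, pelleted and fixed with 0.1% glutaraldehyde 12 min at 37 °C. Blocked peptide-displaying phage bound 1 h at room temperature; after PBST wash, bound phage detected with HRP-conjugated anti-M13 antibody.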

cMet-Fc fusion protein, sequence (P08581 25-307 limits assumed): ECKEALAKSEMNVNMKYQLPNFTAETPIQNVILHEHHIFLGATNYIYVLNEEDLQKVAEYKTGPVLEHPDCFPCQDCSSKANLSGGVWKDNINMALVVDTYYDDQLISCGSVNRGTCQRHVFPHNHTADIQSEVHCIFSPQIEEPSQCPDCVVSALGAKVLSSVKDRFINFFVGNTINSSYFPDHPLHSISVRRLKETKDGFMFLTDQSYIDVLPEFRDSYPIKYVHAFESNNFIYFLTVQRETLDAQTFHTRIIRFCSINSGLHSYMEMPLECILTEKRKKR
cMet-Fc fusion protein, sequence (P08581 with tags, fused parts or gaps limits assumed): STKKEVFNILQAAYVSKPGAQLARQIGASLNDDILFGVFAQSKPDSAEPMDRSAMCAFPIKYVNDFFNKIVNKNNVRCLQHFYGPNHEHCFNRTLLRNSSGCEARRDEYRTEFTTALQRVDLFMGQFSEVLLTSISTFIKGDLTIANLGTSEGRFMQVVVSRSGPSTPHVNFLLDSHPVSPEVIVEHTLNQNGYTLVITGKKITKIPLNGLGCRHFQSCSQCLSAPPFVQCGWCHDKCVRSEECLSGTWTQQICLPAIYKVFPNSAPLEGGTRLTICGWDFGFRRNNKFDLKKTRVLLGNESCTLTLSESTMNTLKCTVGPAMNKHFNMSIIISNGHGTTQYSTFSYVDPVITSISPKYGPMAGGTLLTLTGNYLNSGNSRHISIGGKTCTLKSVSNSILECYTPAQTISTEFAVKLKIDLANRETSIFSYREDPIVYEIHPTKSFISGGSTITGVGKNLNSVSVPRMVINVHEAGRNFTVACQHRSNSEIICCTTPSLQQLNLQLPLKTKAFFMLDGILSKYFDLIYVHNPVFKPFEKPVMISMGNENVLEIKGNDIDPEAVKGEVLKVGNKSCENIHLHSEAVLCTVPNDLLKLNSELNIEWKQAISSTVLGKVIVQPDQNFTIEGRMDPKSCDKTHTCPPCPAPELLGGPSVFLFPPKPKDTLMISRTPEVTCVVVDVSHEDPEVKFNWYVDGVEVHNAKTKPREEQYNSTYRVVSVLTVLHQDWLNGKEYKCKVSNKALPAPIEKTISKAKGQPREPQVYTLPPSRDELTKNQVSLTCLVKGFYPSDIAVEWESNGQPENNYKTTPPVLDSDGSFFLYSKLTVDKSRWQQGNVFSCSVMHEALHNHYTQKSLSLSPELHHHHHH

Molecule	Protein ELISA (cMet-Fc fusion protein) [fold over background]	WC ELISA [1] [fold over background]
AGWTWCDLSMMSCIFHGT (Synthetically generated cMet-binding peptide sequence) [SEQ ID NO: 025]	3.2	1.37
AGHTICQHKALGCPANGT (Synthetically generated cMet-binding peptide sequence) [SEQ ID NO: 041]	3.1	1.27
CC(=O)N[C@@H](C)C(=O)NCC(=O)N[C@@H](CO)C(=O)N[C@@H](Cc1ccccc1)C(=O)N[C@@H](C)C(=O)N[C@H]1CSSC[C@@H](C(=O)N[C@H](C(=O)N[C@@H](CCC(=O)O)C(=O)N[C@@H](Cc2ccccc2)C(=O)NCC(=O)N[C@H](C(=O)NCC(=O)NCC(=O)NCC(=O)N[C@@H](CCCCNC(=O)c2ccc3c(c2)C(=O)OC32c3ccc(O)cc3Oc3cc(O)ccc32)C(N)=O)[C@@H](C)O)C(C)C)NC(=O)[C@H](C)NC(=O)[C@H](Cc2ccccc2)NC(=O)[C@H]([C@@H](C)O)NC(=O)[C@@H]2CCCN2C(=O)[C@@H]2CCCN2C(=O)CNC(=O)[C@H](CCCCN)NC1=O [SEQ ID NO: 053]	18.1	1.27
AGYWSCAGPPMFMCTWQGT (Synthetically generated cMet-binding peptide sequence) [SEQ ID NO: 079]	10.7	1.27
GSELFCFYHHQGYEGCDVLAP (Synthetically generated cMet-binding peptide sequence) [SEQ ID NO: 385]	4.8	1.27
AGYSVCKGYPSFECAFFGT (Synthetically generated cMet-binding peptide sequence) [SEQ ID NO: 075]	5.8	1.33
CC(=O)N[C@@H](C)C(=O)NCC(=O)N[C@@H](Cc1c[nH]cn1)C(=O)N[C@@H](C)C(=O)N[C@@H](Cc1c[nH]c2ccccc12)C(=O)N[C@H]1CSSC[C@@H](C(=O)N[C@@H](Cc2c[nH]c3ccccc23)C(=O)N2CCC[C@H]2C(=O)N2CCC[C@H]2C(=O)NCC(=O)N[C@H](C(=O)NCC(=O)NCC(=O)NCC(=O)N[C@@H](CCCCNC(=O)c2ccc3c(c2)C(=O)OC32c3ccc(O)cc3Oc3cc(O)ccc32)C(N)=O)[C@@H](C)O)NC(=O)[C@H](CCC(=O)O)NC(=O)[C@H](Cc2ccccc2)NC(=O)[C@H](CCCNC(=N)N)NC(=O)[C@@H]2CCCN2C(=O)[C@@H]2CCCN2C(=O)CNC(=O)[C@H](CO)NC1=O [SEQ ID NO: 061]	3.2	1.27
AGHGTCRGWPTFECIYFGT (Synthetically generated cMet-binding peptide sequence) [SEQ ID NO: 064]	6.0	1.40
AGDGWCMAWPEICEWLGT (Synthetically generated cMet-binding peptide sequence) [SEQ ID NO: 014]	4.8	1.33
AGSWECTGPPSFHCQWYGT (Synthetically generated cMet-binding peptide sequence) [SEQ ID NO: 070]	3.9	1.37
CC(=O)N[C@@H](C)C(=O)NCC(=O)N[C@@H](CCC(=O)O)C(=O)N[C@@H](Cc1c[nH]c2ccccc12)C(=O)N[C@@H](Cc1c[nH]c2ccccc12)C(=O)N[C@H]1CSSC[C@@H](C(=O)N[C@@H](Cc2ccc(O)cc2)C(=O)N[C@@H](Cc2c[nH]c3ccccc23)C(=O)N[C@H](C(=O)NCC(=O)N[C@H](C(=O)NCC(=O)NCC(=O)NCC(=O)N[C@@H](CCCCNC(=O)c2ccc3c(c2)C(=O)OC32c3ccc(O)cc3Oc3cc(O)ccc32)C(N)=O)[C@@H](C)O)[C@@H](C)O)NC(=O)[C@H](CC(C)C)NC(=O)[C@H](Cc2ccccc2)NC(=O)[C@H](CCC(=O)O)NC(=O)[C@@H]2CCCN2C(=O)[C@@H]2CCCN2C(=O)CNC(=O)[C@H](Cc2c[nH]cn2)NC1=O [SEQ ID NO: 072]	12.6	1.47
GSGMGCHQVNISTGDCAEDAP (Synthetically generated cMet-binding peptide sequence) [SEQ ID NO: 381]	3.9	1.43
AGSTDCRGHPTFECWGWGT (Synthetically generated cMet-binding peptide sequence) [SEQ ID NO: 086]	5.2	1.30
AGNLPCHWNMSVCDHQGT (Synthetically generated cMet-binding peptide sequence) [SEQ ID NO: 034]	3.3	1.30
AGYWDCKGPPHFFCEWHGT (Synthetically generated cMet-binding peptide sequence) [SEQ ID NO: 080]	7.4	1.23

Second part, the molecule after the results:

Protein ELISA (cMet-Fc fusion protein) [fold over background]	WC ELISA [1] [fold over background]	Molecule
8.9	1.23	CC[C@H](C)[C@H](NC(=O)[C@H](Cc1ccccc1)NC(=O)[C@H](CCC(N)=O)NC(=O)[C@H](Cc1ccccc1)NC(=O)[C@@H](NC(=O)[C@H](Cc1c[nH]c2ccccc12)NC(=O)[C@@H](NC(=O)[C@H](CC(=O)O)NC(=O)[C@H](Cc1ccc(O)cc1)NC(=O)[C@H](CCC(N)=O)NC(=O)[C@H](C)NC(C)=O)[C@@H](C)O)C(C)C)C(=O)N[C@@H](Cc1c[nH]cn1)C(=O)N[C@@H](CCC(=O)O)C(=O)N[C@H](C(=O)N1CCC[C@H]1C(=O)NCC(=O)N[C@@H](CCC(=O)O)C(=O)N[C@@H](CC(C)C)C(=O)N[C@H](C(=O)N[C@@H](C)C(=O)N[C@@H](CCSC)C(=O)N[C@@H](CCC(N)=O)C(=O)NCC(=O)NCC(=O)NCC(=O)N[C@@H](CCCCNC(=O)c1ccc2c(c1)C(=O)OC21c2ccc(O)cc2Oc2cc(O)ccc21)C(N)=O)C(C)C)C(C)C [SEQ ID NO: 454]
5.2	1.17	GDHRKCEISAKTHEVTCYDNDP (Synthetically generated cMet-binding peptide sequence) [SEQ ID NO: 402]
3.0	1.80	AQHMDPAEWDWFIRIYSPVVNP (Synthetically generated cMet-binding peptide sequence) [SEQ ID NO: 487]
3.3	1.37	CC[C@H](C)[C@H](NC(=O)[C@@H](NC(=O)[C@H](CCC(=O)O)NC(=O)CNC(=O)[C@H](Cc1c[nH]c2ccccc12)NC(=O)[C@H](Cc1c[nH]cn1)NC(=O)[C@@H](NC(=O)[C@H](CC(C)C)NC(=O)CNC(=O)[C@H](CC(=O)O)NC(=O)[C@H](Cc1c[nH]cn1)NC(=O)[C@@H]1CCCN1C(=O)[C@H](Cc1c[nH]c2ccccc12)NC(=O)[C@H](CCC(N)=O)NC(=O)[C@H](C)NC(C)=O)C(C)C)C(C)C)C(=O)N[C@@H](CCSC)C(=O)N[C@@H](CC(C)C)C(=O)N[C@@H](CCCNC(=N)N)C(=O)N[C@@H](Cc1ccccc1)C(=O)NCC(=O)NCC(=O)NCC(=O)N[C@@H](CCCCNC(=O)c1ccc2c(c1)C(=O)OC21c2ccc(O)cc2Oc2cc(O)ccc21)C(N)=O [SEQ ID NO: 479]
3.8	1.40	AQEWQTWTWNMIEVISENKTP (Synthetically generated cMet-binding peptide sequence) [SEQ ID NO: 468]
5.7	1.33	CC[C@H](C)[C@H](NC(=O)[C@H](C)NC(=O)[C@H](CCC(=O)O)NC(=O)[C@H](C)NC(=O)[C@@H](NC(=O)CNC(=O)[C@@H](NC(=O)[C@H](CCC(N)=O)NC(=O)[C@H](C)NC(C)=O)C(C)C)[C@@H](C)O)C(=O)N[C@@H](CCSC)C(=O)N[C@@H](Cc1ccccc1)C(=O)N[C@@H](CO)C(=O)N[C@@H](CC(=O)O)C(=O)N[C@H](C(=O)N[C@@H](CCC(=O)O)C(=O)N[C@@H](CC(=O)O)C(=O)N[C@H](C(=O)NCC(=O)N[C@H](C(=O)N[C@@H](Cc1c[nH]cn1)C(=O)N[C@@H](CCCCN)C(=O)N[C@@H](Cc1ccccc1)C(=O)NCC(=O)NCC(=O)NCC(=O)N[C@@H](CCCCNC(=O)c1ccc2c(c1)C(=O)OC21c2ccc(O)cc2Oc2cc(O)ccc21)C(N)=O)C(C)C)[C@@H](C)O)C(C)C [SEQ ID NO: 459]
3.7	1.27	AQDPGFSKHSMGHGYPSKMNWG (Synthetically generated cMet-binding peptide sequence) [SEQ ID NO: 471]
3.1	1.23	AQLFQYLWHDDPQGAFFQLSMW (Synthetically generated cMet-binding peptide sequence) [SEQ ID NO: 483]
